Test results taken from the supplement of paper PMC9170038.

Test system: MS2 coat protein
Experiment: apparent KD of MS2 coat protein; designed switch direction (-1 OFF switch, 1 ON switch): -1; higher = weaker reporter binding
Procedure, shortened: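 For each design, the apparent KD is the median over clusters of curves fitted to normalised cluster fluorescence. Clusters held RNA switches with common flanks, transcribed on Illumina chips by stalled E. coli RNA polymerase. These were titrated with SNAP-549-labelled MS2 coat protein, doubling from 0.7 or 1.5 nM to 3 µM, without input, with 200 uM small-molecule ligand, or with an oligonucleotide input.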

[1] = Eterna round: R95, input ligand: microRNA oligo, concentration not stated
[2] = input ligand: microRNA oligo, concentration not stated
[3] = Eterna round: R95, input ligand: FMN 200 uM
[4] = Eterna round: R95, input ligand: none

Sequence | apparent KD of MS2 coat protein [1] [nM] | apparent KD of MS2 coat protein (input ligand: FMN 200 uM) [nM] | apparent KD of MS2 coat protein (input ligand: none) [nM] | apparent KD of MS2 coat protein [2] [nM] | apparent KD of MS2 coat protein [3] [nM] | apparent KD of MS2 coat protein [4] [nM]
ACUAGAUGAGGAUAUGCAUAUUUUCGUGUUCUUCUAGGUUAACAUGAGGAUCACCCAUGUAGAAGGCGUCUGGA [Exclusion 2 - 21] (puzzle: Exclusion 2) | 20 | – | – | – | – | –
ACUAGAUGAGGAUAUGCAUGUUUUCAUGUUCUUCUAGAUUAACAUGAGGAUCACCCAUGUAGAAGGCGUCUUUA [Exclusion 2 - 32] (puzzle: Exclusion 2) | 18.9 | – | – | – | – | –
ACUAGAUGAGGAUAUGCAUGUUUUCGUGUUCUUCUAGAUUAACAUGAGGAUCACCCAUGUAGAAGGCGUCAUUU [Exclusion 2 - 27] (puzzle: Exclusion 2) | 76.9 | – | – | – | – | –
ACUAGUCAUGAGGAUAUGCGAGCCAACGGGCGAGCAGAAGGCGUGACAUGAGGAUCACCCAUGUCAGUUCGCGA [eternacac ex6r4 sub31] (Eterna round: R97, puzzle: Exclusion 6) | – | 21.9 | 17.4 | – | – | –
ACUCAGUGAGGAUAUCGCCAGAGAGCCGUGACGGCUCCUGAUGAGAAGGCACAUGAGGAUCACCCAUGUAAGCA [EX4 C.7] (Eterna round: R97, puzzle: Exclusion 4) | – | 204 | 134 | – | – | –
ACUCCUGAUGUUAGGAUAUCAGGCGCGACAGCGGAUGAGAAGGAACAUGAGGAUCACCCAUGUGGGCUUAUCAA [Reedonso] (Eterna round: R97, puzzle: Brourd's mod of Exclusion 4) | – | 325 | 81.6 | – | – | –
ACUCGUGCCCGAGGAUAUUACAGCAACCUGGCUUAAGAAGGCGGGACAUGAGGAUCACCCAUGUUCUGCGCAUCGGUCGUCAGA [Anzatete] (Eterna round: R96, puzzle: Exclusion NG 1) | – | 18.8 | 13 | 9.36 | – | –
ACUGGGAGAGGAUAUACAUGAGGAUCACCCAUGUGAAAUUAUAGUGAGGAAAUGAAAAGUAGAAGGCUCUUAGA [Mod of Mat 14 - Jieux - Exclusion 3] (Eterna round: R97, puzzle: Exclusion 3) | – | 151 | 68.4 | – | – | –
ACUGGUGCAGGAUAUACAUGAGGAUCACCCAUGUGAUCAGCAGUCCUCGGACUGCAAUGUAGAAGGGCACCAGU [E3/1-D1] (Eterna round: R97, puzzle: Exclusion 3) | – | 105 | 804 | – | – | –
ACUGUUCGAGGAUAUACGAUCGUGCUUCGGCACGUAAGAUCACAUGAGGAUCACCCAUGUAGAAGGCGAACAGU [Mod 5 - Jieux - Exclusion 2] (Eterna round: R97, puzzle: Exclusion 2) | – | 292 | 38.6 | – | – | –
ACUUACUGAGGAUAUACAUAGAUUUACAUGAGGAUCACCCAUGUUCCUCUAUGUAUAUAUGUAGAAGGCAGAAGUG [Mat - Exclusion 5 - JL Mod - D36] (Eterna round: R97, puzzle: Exclusion 5) | – | 137 | 33.3 | – | – | –
ACUUACUGAGGAUAUGCGUGGAUAAACAUGAGGAUCACCCAUGUUCCUAUAAGUAUGUAUGUAGAAGGCAGAAGAA [JR_Ex5_Sub075] (Eterna round: R97, puzzle: Exclusion 5) | – | 60.5 | 130 | – | – | –
ACUUAUAGAGGAUAUACAGUUUAUUACAUGAGGAUCACCCAUGUUCUUCAAUGUCCUGAAGUAGAAGGCUAAGGAA [Ex5 Malc#5 mod4] (Eterna round: R97, puzzle: Exclusion 5) | – | 19.7 | 16.3 | – | – | –
ACUUAUUGAGGAUAUACAUUAAAUUACAUGAGGAUCACCCAUGUUCUUCAAUGUAUAUAUGUAGAAGGCAGAAGAA [JL-ex5-4.27 Malcolm mod] (Eterna round: R97, puzzle: Exclusion 5) | – | 14.9 | 16.4 | – | – | –
ACUUGCUAUUUGCUCGUCUUAUCCUUGUUUGUUUACUAUACAUGAGGAUCACCCAUGUUAUAUUUAAGGGUGUGAUA [JR_SV3TOV2_Sub075] (puzzle: Sensor v3, turn-off variant 2) | 322 | – | – | – | 141 | 166
ACUUGUGCCCUAGGAUAUCGCCCAGCCAAUGGAUGAGAAGGAGGCGGGUGAAACAUGAGGAUCACCCAUGUAAACGCACAGGCG [Esa] (Eterna round: R96, puzzle: Exclusion NG 1) | – | 114 | 26.9 | 25.5 | – | –
AGAAACAGAGGAUAUACUUGAGGAUCACCCAAGUGUCACGGAAACACUGUGCUCCUUUGUAGAAGGCUGGAAUA [Dibeon] (Eterna round: R97, puzzle: Exclusion 3) | – | 382 | 63 | – | – | –
AGAAACAGAGGAUAUCGCGGACAGCACAUGAGGAUCACCCAUGUGAUGCUCCGCGGGCCGCGAGAAGGCUGAAAUG [Rateatge] (Eterna round: R96, puzzle: Exclusion 5) | – | – | – | 11.2 | – | –
AGAAACAGAGGAUAUCGCGGACAGCACAUGAGGAUCACCCAUGUGAUGCUCCGCGGGCCGCGAGAAGGCUGAAAUG [Rateatge] (puzzle: Exclusion 5) | 12.2 | – | – | – | 29.3 | 14.1
AGAAACUCAAGAGGAUAUCACAUGAGGAUCACCCAUGUAUAGCGCGCUAUGCUAGUCCUCGUAUAUGAGAAGGUUUGAAAUAAG [Mat - Exclusion NG 2 - Mod of JL - D80] (Eterna round: R96, puzzle: Exclusion NG 2) | – | 16.4 | 17.9 | 12.6 | – | –
AGAAAUGCCCAUGGCAACAAGCUUUUUGCUUGUCUUACCACAUGAGGAUCACCCAUGUGACAUGGGCUCCUGAUAAU [Ladidier] (puzzle: Sensor v3, turn-off variant 2) | 10.6 | – | – | – | 12.4 | 12.2
AGAAAUGCCCAUGGCCACAAGCUUUUUGCUUAUCUUACUACAUGAGGAUCACCCAUGUAACAUGGGCUCCUGACAAU [Enrionera] (puzzle: Sensor v3, turn-off variant 2) | 11.2 | – | – | – | 14.9 | 13.3
AGAAAUGCCCAUGGCCGCAAGCUUUUUACUUGUCUUACCACAUGAGGAUCACCCAUGUGACAUGGAAACCUUAUGAU [Sensor v3, turn-off variant 2 (MOD of Oranla v.2)] (puzzle: Sensor v3, turn-off variant 2) | 97 | – | – | – | 30.3 | 28.1
AGAAAUGCCCAUGGCCGCAAGCUUUUUACUUGUCUUACCACAUGAGGAUCACCCAUGUGACAUGGAUUCCUUAUGAU [Sensor v3, turn-off variant 2 (MOD of Oranla)] (puzzle: Sensor v3, turn-off variant 2) | 750 | – | – | – | 169 | 248
AGAAAUGCCCAUGGCCGCAAGCUUUUUACUUGUCUUACCACAUGAGGAUCACCCAUGUGACAUGGGCUCCUGAUAAU [Mabeonen] (puzzle: Sensor v3, turn-off variant 2) | 27.5 | – | – | – | 15 | 13.4
AGAAAUGCCCAUGGCCGCAAGCUUUUUACUUGUCUUACCACAUGAGGAUCACCCAUGUGACAUGGGCUCCUUAUAAU [Oranla] (puzzle: Sensor v3, turn-off variant 2) | 7.4 | – | – | – | 15.8 | 13
